Patent publication KR20110120890A

Molecular target: Her-2 (human) (UniProt P04626)
Experiment: antibody titration on FFPE SKBR-3 (positive) and MDA-MB-468 (negative) cells, non-proximal direct VeraTag release with 200 uM methylene blue, multi-parameter curve fit, single site

- Kd: 8 µg/mL
Substance: Ab8-Pro11 (monoclonal antibody Ab8 against the cytoplasmic domain of HER2, Lab Vision, conjugated to VeraTag reporter Pro11)
